Laboratory results published in publication PMC3778974 (Cell, 2013).
Like-named read-outs stand apart in the source and are kept apart here.

T1: Def1_(1-500), recombinant (Def1_(1-500)-His) (S. cerevisiae, UniProt P35732 1-500)
T1 sequence (looked up): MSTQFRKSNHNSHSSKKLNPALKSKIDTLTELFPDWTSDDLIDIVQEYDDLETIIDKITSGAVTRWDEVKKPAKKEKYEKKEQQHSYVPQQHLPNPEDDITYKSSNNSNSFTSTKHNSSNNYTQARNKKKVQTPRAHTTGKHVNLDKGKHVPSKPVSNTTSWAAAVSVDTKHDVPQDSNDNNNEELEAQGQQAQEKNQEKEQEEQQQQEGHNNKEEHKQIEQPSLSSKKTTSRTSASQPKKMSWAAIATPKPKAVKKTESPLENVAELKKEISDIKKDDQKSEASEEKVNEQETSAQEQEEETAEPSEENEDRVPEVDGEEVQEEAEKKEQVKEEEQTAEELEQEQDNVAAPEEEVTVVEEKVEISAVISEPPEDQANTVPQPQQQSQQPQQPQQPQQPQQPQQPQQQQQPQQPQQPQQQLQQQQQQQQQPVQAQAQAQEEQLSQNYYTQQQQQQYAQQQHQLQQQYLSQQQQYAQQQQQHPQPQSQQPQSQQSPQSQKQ


Columns and labels:
[1] = molecular target: T1, Def1_(1-500), recombinant …; assay: pull-down
[2] = molecular target: T1, Def1_(1-500), recombinant …; assay: pull-down; remark: listed apart in the source

binding result [1] | binding result [2] | Binder
binds |  | GST-Ela1_(250–379) (domain or fragment, S. cerevisiae, UniProt P53861 250-379, looked up) VNRQMDNVTAEKKDVTQPITPVKKRRSESPSIFLNRKKPALFRPTPKTNAAGSRPHTTAITNDHRTTSHPYPHKDVVTSISSVTANPVTKGHKKKKSGIFVRNAGSDGDSFPHVTATGPTTRPYIYEPRK
 | binds | recombinant Ela1-Elc1 heterodimer (full-length His-Ela1 with Elc1) (complex, S. cerevisiae) chain 1: MKSLQTLCEISLMRNHSNIQSVSNVPYHLLKRILQKVKIPQLLKLEKSNVLLIFDDDELWLEFLRQDFPTNVHEQFVSKRDIICKYYFDFVKENDIELYHSNQDLLKSCVRQSVVKDIRNNKYRIPYRMLYSKYQQEVEKKQEESAERLRLEMQKLQQEREKKQTIVVDHTVYFKKRNTKKTTRLHNEPHSQLYMKSLKDHESRLKHFKDGGFNIAKRHAQRVAFGGQAGGQSSSPKKGPLSIKPEPVKVNRQMDNVTAEKKDVTQPITPVKKRRSESPSIFLNRKKPALFRPTPKTNAAGSRPHTTAITNDHRTTSHPYPHKDVVTSISSVTANPVTKGHKKKKSGIFVRNAGSDGDSFPHVTATGPTTRPYIYEPRK chain 2: MSQDFVTLVSKDDKEYEISRSAAMISPTLKAMIEGPFRESKGRIELKQFDSHILEKAVEYLNYNLKYSGVSEDDDEIPEFEIPTEMSLELLLAADYLSI
